Laboratory results as given in paper PMC8537613 (2021).

Target: m102.4
Test: ELISA

B1: NiV sG (domain or fragment)
chain: QNYTRSTDNQAVIKDALQGIQQQIKGLADKIGTEIGPKVSLIDTSSTITIPANIGLLGSKISQSTASINENVNEKCKFTLPPLKIHECNISCPNPLPFREYRPQTEGVSNLVGLPNNICLQKTSNQILKPKLISYTLPVVGQSGTCITDPLLAMDEGYFAYSHLERIGSCSRGVSKQRIIGVGEVLDRGDEVPSLFMTNVWTPPNPNTVYHCSAVYNNEFYYVLCAVSTVGDPILNSTYWSGSLMMTRLAVKPKSNGGGYNQHQLALRSIEKGRYDKVMPYGPSGIKQGDTLYFPAVGFLVRTEFKYNDSNCPITKCQYSKPENCRLSMGIRPNSHYILRSGLLKYNLSDGENPKVVFIEISDQRLSIGSPSKIYDSLGQPVFYQASFSWDTMIKFGDVLTVNPLVVNWRNNTVISRPGQSQCPRFNTCPEICWEGVYNDAFLIDRINWISAGVFLDSNQTAENPVFTVFKDNEILYRAQLASEDTNAQKTITNCFLLKNKIWCISLVEIYDTGDNVIRPKLFAVKIPEQCT
With B1 the Kd was 0.15 nM.
